# Results reported in publication doi:10.1101/2021.09.03.458953.
# Like-named read-outs stand apart in the source and are kept apart here.
# Key:
# [1] = biological target: Sarbecovirus (SARS-CoV-2 / SARS-CoV) spike C-terminal hepta-peptide, wild type (UniProt P0DTC2); conditions: pH 7.5; 25°C; 150 mM NaCl
# [2] = biological target: Sarbecovirus (SARS-CoV-2 / SARS-CoV) spike C-terminal hepta-peptide, wild type (UniProt P0DTC2); conditions: pH 7.5; 25°C; 150 mM NaCl; remark: listed apart in the source
# [3] = biological target: Sarbecovirus (SARS-CoV-2 / SARS-CoV) spike C-terminal hepta-peptide, wild type (UniProt P0DTC2); conditions: pH 6.5; 25°C; 150 mM NaCl
substance,measurement,setting,value
Coatomer subunit alpha N-terminal WD40 domain (alphaCOPI-WD40) L181K;L185K;I192K;L196K;F197K,equilibrium KD,[1],4.17 ± 0.04 µM
same,kinetic KD,[2],2.75 ± 0.09 µM
same,equilibrium KD,[3],1.40 ± 0.15 µM
